Data as given in patent US20180303937A1, “A COMPOSITION FOR CONTROLLED RELEASE OF A BIOMOLECULE, METHOD OF PREPARATION AND USES THEREOF” (CENTRO DE NEUROCIENCIAS E BIOLOGIA CELULAR, priority 2015, published 2018).

Tested on: SC-1 mouse fibroblasts
Experiment: Cytotoxicity of BSA-dsDNA51.7-AuNR (Celltiter-Glo ATP assay)
Assay type: cell-based
Details: 50 μg/mL NR; irradiation 1.25 to 2 W/cm^2, 2 min
Method: FIG. 7: Cytotoxicity of BSA-dsDNA51.7-AuNR. Mouse fibroblasts were seeded on a 96 well plate (4×10^3 cells/well), left to adhere for 24 h and then incubated with different concentrations of BSA-dsDNA51.7-AuNR for 4 h. After incubation, the cells were washed with medium to remove non-internalized AuNR. Some of the conditions were irradiated for 2 min with 1.25 or 2 W/cm^2. Then, the plate was left in the incubator for 24 h. The ATP production was measured by a Celltiter-Glo Luminescent Cell Viability Assay (Promega).
Cytotoxicity of BSA-dsDNA51.7-AuNR. SC-1 mouse fibroblasts were grown in DMEM supplemented with 10% fetal bovine serum (FBS), at 37° C. in a fully humidified air containing 5% CO2. To assess the cytotoxicity of gold NRs, fibroblasts were seeded on a 96 well plate (4×10^3 cells/well), left to adhere for 24 h and then incubated with BSA-dsDNA51.7-AuNR for 4 h. After incubation, the cells were washed with medium to remove non-internalized NR. In some conditions, after incubation with BSA-dsDNA51.7-AuNR, the cells were washed and irradiated with a fiber coupled Roithner laser (785 nm). Each well was placed below the end of the fibre and irradiated with a power density of 1.25 and 2 W/cm^2 for 2 min. Then cells were left in the incubator for 24 h and the ATP production was measured by a Celltiter-Glo Luminescent Cell Viability Assay (Promega).

Substance: BSA-dsDNA51.7-AuNR: gold nanorods carrying BSA via dsDNA with melting temperature 51.7° C.
- cytotoxic effects (ATP production): do not show significant cytotoxic effects
